The source of these data is patent publication US11479601B2, “Antibodies specific to Sonic Hedgehog and method of use thereof” (The Regents of the University of California, priority 2016, dated 2022).

In assay [1] the test system is advanced SCLC. As to conditions: sonidegib in addition to cisplatin/etoposide; cited from earlier work.
Assay [2] deals with A549 Shh− cells. Put plainly: Migration/wound healing assay on A549 Shh− cells. It counts as cell-based, human. As to conditions: Shh recombinant protein 1200 ng/mL, day 3. On the procedure:
Migration assay was performed by wound healing assay. Monolayers of cells were: cultured, scratched, treated with media containing proteins and/or drugs at different concentrations: Shh protein, DMSO, and GDC0449, and recorded 0 and 24, 72 and 96 hours after treatment.
Wound healing assays were performed to study cell migration. Monolayers of cells were cultured, scratched, treated with media containing proteins and/or drugs at different concentrations: Shh protein, DMSO, and GDC0449-recorded at 0, 24, 72 and 96 hours after treatment.

Assay [3] concerns Shh gene expression. Put plainly: Shh gene expression by qPCR in drug-treated A549 cells. The class given is cell-based, human. As to conditions: after cisplatin treatment.
Description: RNA from unsorted cells was extracted with Qiagen Rneasy® Minikit (Quiagen), according to manufacturer instructions. RNA from sorted cells was extracted with Arcturus PicoPure RNA Isolation Kit (Life technologies). cDNA was then synthesized with iScript cDNA Synthesis Kit (Bio-Rad), according to manufacturer instructions. Commercial primers for Shh gene were obtained from Origen. Quantitative PCR was performed on Applied Biosystems' 7900HT Fast Real-Time PCR System, with triplicate for each gene analysis. Gene expression analysis was calculated with deltaCT method, with normalization with endogenous control (18s gene) (normalized gene expression level=2^−deltaCT(test gene)−deltaCT(18s)). For ddPCR, droplets creation, PCR and results analysis were performed according to manufacturer instructions (BioRad, QX100 ddPCR System, Quantasoft software). Results of ddPCR were expressed as FAM concentrations (copies/μl). RNA from unsorted cells was extracted with Qiagen's RNeasy Mini kit (Qiagen) according to the manufacturer's instructions. […] Quantitative RT-PCR (qRT-PCR) was performed on an Applied Biosystems 7900HT Fast Real-Time PCR System, in triplicate for each sample. Gene expression analysis was calculated with the delta-deltaCT method normalized to an endogenous control (18S gene). […] Results of ddPCR were expressed as FAM concentrations (copies/0).
Assay [4] concerns Shh+ cells (A549). Put plainly: Shh rate by flow cytometry in drug-treated A549 cells. The class given is cell-based, human. The procedure: FACS (1:40). The secondary antibody was a donkey anti-mouse FITC-linked antibody (ab97029, 1:100, Abcam). For cell analysis after treatment assays (chemotherapy or GDC0449), a dead cell marker (SytoxRed, Invitrogen) was also used. For human fresh samples, an anti-CD45 APC-linked antibody (ab28106, 1:100, Abcam), and a dead cells marker (SytoxRed, Invitrogen) were added. For staining of stable transfected cell lines, mouse anti-HA antibody (Abcam, 1:100) and rabbit anti-FLAG antibody (Cell Signaling; 1:400) were used. Corresponding secondary antibodies were donkey anti-mouse AlexaFluor647 (Invitrogen, 1:1000) and donkey anti-rabbit AlexFluor594 (Invitrogen, 1:1000) antibodies. Flow cytometry analyses were performed on AccuriC6 flow cytometer (BD Biosciences), and FACS on FACSAria II (BD Biosciences). Flow analyses were based at least on 200,000 cells, and each test was made at least in triplicate. For all experiments, a negative control with cells processed without primary antibody was used. Sorted cells (Shh+ and Shh− cells) were collected on fresh media, and seeded on culture plates or freezed at −80° C. according to further analyses. Flow cytometry analysis was performed without membrane permeabilization prior to labeling the cells, unless otherwise indicated (e.g., FIG. 1D). Cisplatin was purchased from Sigma, and freshly reconstituted in PBS (2 g/1). Docetaxel was purchased from Tocris Bioscience, reconstituted in DMSO (5 g/1 stock dilution at −20° C.; further dilution in fresh culture medium) for in vitro assays, or reconstituted in ethanol/polysorbate 80 (1:1; 5 g/1 stock dilution at −20° C.; further dilution in PBS) for in vivo assays. GDC0449 was purchased from Selleck Chemicals, and reconstituted in DMSO (30 mM stock dilution). Shh human recombinant protein was obtained from EBioscience, and used at 1200 ng/ml. The mouse Shh-C-terminal antibody (mentioned above) was used for flow cytometry and FACS (1:40). The secondary antibody was a donkey anti-mouse FITC-linked antibody (ab97029, 1:100, Abcam). For cell analysis after treatment assays (chemotherapy or GDC0449), a marker for dead cells (SytoxRed®, Invitrogen) was also used. For fresh human samples, an anti-CD45 APC-linked antibody (ab28106, 1:100, Abcam) was added, and a marker for dead cells (SytoxRed®, Invitrogen). For staining of stable transfected cell lines, a mouse anti-HA antibody (Abcam, 1:100) and a rabbit anti-FLAG antibody (Cell Signaling; 1:400) were used. Corresponding secondary antibodies were donkey anti-mouse AlexaFluor647 (Invitrogen, 1:1 000) and donkey anti-rabbit AlexFluor594 (Invitrogen, 1:1 000). Flow cytometry analyses were performed on an AccuriC6 flow cytometer (BD Biosciences), and FACS on a FACSAria II (BD Biosciences). […]
(In general: Flow cytometry measures light scatter and fluorescence of single cells or particles in a stream.)

Assay [5] deals with full-length human Sonic Hedgehog (Shh) expressed in cells (endogenous, or transfected with pCMV-Shh) (human) (UniProt Q15465). Put plainly: FACS of non-permeabilised A549 cells.
For assay [6] the target is unchanged. Put plainly: flow cytometry of ground up permeabilised A549 xenograft tumour cells from control IgG-treated mice.
Assay [7] has the same target. Put plainly: flow cytometry, A549 + vector control (endogenous Shh).
Assay [8] shares this target. Description: flow cytometry, cells transfected with full-length Shh.
Assay [9] has the same target. Put plainly: flow cytometry, A549 cells transfected with pCMV-Shh.
Assay [10] shares this target. Description: flow cytometry, untransfected cells (No transfection).
For assay [11] the target is unchanged. Put plainly: FACS of non-permeabilised A549 cells labeled with the antibody; Total Cells Sorted 19 million, % Shh+ Cells 0.06%.
Assay [12] deals with A549 cells. Description: Viability of A549 cells treated with Shh antibodies ± GLI inhibitor 249C. The class given is cell-based, human. As to conditions: Homo sapiens, A549. On the procedure:
The effect of the C-terminal Shh antibodies from clones 2G4 and 2D9 on the viability of A549 cells was determined. A549 cells were exposed to increasing concentrations of the C-terminal Shh antibodies (2G4, 2D9), or antibodies against the N-terminal portion of Shh protein (6D3, 2E1), and the effective dose (ED50) was determined (assay 1: FIG. 16A; assay 2: FIG. 16B). […] Possibly due to the fact that very few cells express full-length Shh on the cell surface, the cytotoxic effect of the C-terminal Shh antibodies was not as potent as the cytotoxic effect of the N-terminal antibodies.
Next, the cytotoxicity of the C-terminal Shh antibodies was tested when the antibodies were used in conjunction with a small-molecule inhibitor of GLI zinc-finger transcription factor signaling, 249C (4-(5-chlorofuran-2-yl)-1,3-bis(2,4-difluorophenyl)-5-methyl-N-((4-methylmorpholin-2-yl)methyl)-4,5-dihydro-1H-pyrazole-5-carboxamide; Compound 135 above). A549 cells were exposed to varying concentrations of the C-terminal antibodies (2G4, 2D9) or the N-terminal antibodies (6D3, 2E1), in the presence or absence of a very low dose (40 nM) of 249C. (The IC50 of 249C in A549 cells is ˜70 nM.)

Assay [13] deals with T1, recombinant full-length Shh protein (human, UniProt Q15465 24-462, limits assumed).
T1 construct: Printed only as 'full-length recombinant Shh protein'; also called full-length recombinant Shh protein
Put plainly: BLI (Octet), response (nm) against Shh conc (nM), four points between about 28 and 165 nM, fitted line, R2 = 0.97. (Biolayer interferometry detects binding as a change in optical thickness at a sensor tip.)

The target in assay [14] is T1, recombinant full-length Shh protein. Description: BLI (Octet), response (nm) against Shh conc (nM), four points between about 28 and 165 nM, fitted line, R2 = 0.98.

Take `Cc1c(C(=O)Nc2ccc(N3C[C@@H](C)O[C@@H](C)C3)nc2)cccc1-c1ccc(OC(F)(F)F)cc1` [sonidegib, N-[6-[(2S,6R)-2,6-Dimethylmorpholin-4-yl]pyridin-3-yl]-2-methyl-3-[4-(trifluoromethoxy)phenyl]benzamide]: the response rate in assay [1] is on record as 79%.
For “human recombinant N-terminal Shh peptide: Shh human recombinant protein from eBioscience, used at 1200 ng/ml”, in [2], the “augmentation in the migration rate” value is given as 15%.
In the case of `N.N.[Cl][Pt][Cl]` [cisplatin], in assay [3], the “Shh gene expression (qPCR)” value was “elevation”. In assay [4] (A549 cells, cisplatin 1 mM, 72 h), the “Shh rate, Shh+ cells of live cells” value is listed as 5%. For the same molecule, the “Shh rate with escalating doses” value in [4] (NSCLC cells, escalating doses of cisplatin) was “absolute augmentation”.
As to “commercial C-terminal Shh antibody (Abcam ab53281, rabbit)”, in [5], the % Shh+ cells sorted was determined as 0.06%. For the same molecule, the % Shh-labeled cells in assay [6] was found to be 80%. Further, the % of cells labeled came to 1% in assay [7], 2.45% in assay [8], 5.1% in assay [9] and 0.11% in [10]. Also, in assay [11], the # Shh+ Cells came out at 3810 cells.
The IC50 is the concentration that gives 50% inhibition. Read a high IC50 as lower potency. Turning to `CN1CCOC(CNC(=O)C2(C)C(c3ccc(Cl)o3)C(c3ccc(F)cc3F)=NN2c2ccc(F)cc2F)C1` (stereo not drawn) [Ab 249C, 4-(5-chlorofuran-2-yl)-1,3-bis(2,4-difluorophenyl)-5-methyl-N-((4-methylmorpholin-2-yl)methyl)-4,5-dihydro-1H-pyrazole-5-carboxamide], in assay [12], the IC50 is approximately 70 nM.

B1: Ab 1C11-2D9 (antibody, mouse IgG1, kappa, V domains shown)
VH: EVKLVESGGGLVKPGGSLKLSCAASGFTFSSYTMSWVRQTPAKRLEWVATISSGGGNTYYPDSVKGRFTISRDNARNTLYLQMSSLRSEDTAMYYCARDYRSLFAYWGQGTLVTVSA
VL: QIVLTQSPAIMSASPGEKVTITCSASSSVSYMHWFQQKPGTSPKLWIYSTSNLASGVPARFSGSGSGTSYSLTISRMEAEDAATYYCQQRSSYPFTFGSGTKLEIKR
notes: also called clone 2D9; Ab11-2D9
One may read the Kd as the concentration at which binding is half-saturated. On to B1, for which, in assay [13], the Kd was 4.6 nM.

B2: Ab 1C11-2G4 (antibody, IgG1, V domains shown)
VH: B1 VH
VL: QIVLTQSPAIMSASPGEKVTITCSASSSVSYMHWFQQKPGTSPKLWIYSTSNLASGVPARFSGSGSGTSYSLTISRMEAEDAATYYCQQRSSYPFTFGSGTKLEIK
notes: also called clone 2G4; Ab 2G4
On to B2, for which the Kd in assay [14] turned out to be 4 nM.
